Results taken from paper PMC9114768 (Frontiers in Immunology, 2022).

How the values were obtained:
Details in all cases: both partners purified
[1] = target: T1, S1-RBD peptide 13 (SARS-CoV-2 (YP_009724390)); test: ELISA
T1 construct: source: synthetic peptide (Leadgene Biomedical)
T1 chain: PFERDISTEIYQAGS

[2] = target: His-tagged SARS-CoV-2 S1-RBD recombinant protein, wild type (SARS-CoV-2 (YP_009724390), UniProt P0DTC2); test: SPR; Biacore T200; […]; mAb 256 nM to 8 nM; 30 μL/min, 120 s association, 360 s dissociation; 25°C; 1:1 binding model
[3] = target: T2, C-terminal Fc-tagged human ACE2 recombinant protein (Homo sapiens, UniProt Q9BYF1); test: SPR; Biacore T200; […]; mAb 1024 nM to 8 nM; 30 μL/min, 120 s association, 360 s dissociation; 25°C; 1:1 binding model
T2 construct: also called ACE2-hFc; recombinant ACE2-hFc; source: CHO cells, purified (Leadgene Biomedical Cat. No. 63333); not shown: Fc (human, hFc), C-terminal, kept
T2 sequence (Q9BYF1 18-740): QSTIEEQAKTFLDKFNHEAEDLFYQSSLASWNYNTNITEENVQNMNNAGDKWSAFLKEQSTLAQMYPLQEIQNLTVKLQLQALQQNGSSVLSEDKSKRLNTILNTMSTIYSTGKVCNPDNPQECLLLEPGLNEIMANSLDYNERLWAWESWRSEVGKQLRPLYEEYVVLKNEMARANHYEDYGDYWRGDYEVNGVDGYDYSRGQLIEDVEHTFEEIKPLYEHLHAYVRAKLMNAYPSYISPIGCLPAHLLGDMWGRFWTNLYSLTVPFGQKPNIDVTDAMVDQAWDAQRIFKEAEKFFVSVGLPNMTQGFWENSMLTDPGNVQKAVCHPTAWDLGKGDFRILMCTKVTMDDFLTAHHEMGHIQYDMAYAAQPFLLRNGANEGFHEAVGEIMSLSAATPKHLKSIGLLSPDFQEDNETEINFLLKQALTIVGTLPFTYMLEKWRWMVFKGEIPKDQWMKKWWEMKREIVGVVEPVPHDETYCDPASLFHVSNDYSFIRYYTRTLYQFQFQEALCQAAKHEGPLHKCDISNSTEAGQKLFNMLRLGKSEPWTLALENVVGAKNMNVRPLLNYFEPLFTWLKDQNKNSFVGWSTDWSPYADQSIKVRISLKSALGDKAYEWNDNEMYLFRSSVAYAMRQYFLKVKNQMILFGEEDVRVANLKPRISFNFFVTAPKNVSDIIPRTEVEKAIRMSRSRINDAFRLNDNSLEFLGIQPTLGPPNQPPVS

B1: monoclonal antibody 127 (antibody, V domains shown)
VH: QVQLQQPGAELVKPGASVKLSCKASGYTFTSYWMHWVKQRPGQGLEWIGEINPSNGRKNYNEKFKSKATLTVDKSSSTAYMQLSSLTSEDSAVYYCVRGDYGSSYYWYFDVWGAGTTVTVSS
VL: not shown
In the case of B1, the binding result [1] is reported as “binds”, the Kd [2] is reported as 2.44 nM and the Kd [3] is reported as 16.1 nM.

B2: monoclonal antibody 150 (antibody, V domains shown)
VH: B1 VH
VL: not shown
notes: also called mAb 150
In the case of B2, the binding result [1] is reported as “binds”, the Kd [2] is reported as 3.87 nM and the Kd [3] is reported as 2770 nM.
